T1: GST-GEF1 (Arabidopsis thaliana, UniProt Q93ZY2 1-548)
T1 construct: RopGEF1 (GEF1), Arabidopsis thaliana; also called GST-tagged GEF1; GST-RopGEF1; source: E. coli Rosetta (DE3) pLysS, purified (Glutathione Sepharose); not shown: GST, N-terminal, kept
T1 sequence (looked up): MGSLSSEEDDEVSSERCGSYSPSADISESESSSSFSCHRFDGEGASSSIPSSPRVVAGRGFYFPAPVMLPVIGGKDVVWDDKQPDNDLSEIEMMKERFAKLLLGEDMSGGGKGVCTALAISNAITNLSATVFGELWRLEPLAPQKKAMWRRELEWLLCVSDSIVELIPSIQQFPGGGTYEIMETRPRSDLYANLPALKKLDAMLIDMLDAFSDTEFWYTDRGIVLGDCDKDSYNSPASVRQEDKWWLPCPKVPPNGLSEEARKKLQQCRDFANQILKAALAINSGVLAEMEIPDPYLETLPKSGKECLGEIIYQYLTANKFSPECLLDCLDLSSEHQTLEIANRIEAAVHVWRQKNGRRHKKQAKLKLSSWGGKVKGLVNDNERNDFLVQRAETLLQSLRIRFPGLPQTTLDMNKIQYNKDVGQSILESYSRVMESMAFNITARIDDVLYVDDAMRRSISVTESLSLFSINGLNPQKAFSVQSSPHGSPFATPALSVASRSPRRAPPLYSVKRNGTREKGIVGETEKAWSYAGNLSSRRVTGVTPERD


Target: T1, GST-GEF1
Assay: pull-down; GST-GEF1 on Glutathione Sepharose beads as bait, StrepII-tagged input proteins; bound proteins detected by blot for Strep-II
Conditions: both partners purified

binding result	Binder
binds	StrepII-ROP11 (natural protein, ROP11, ROP/RAC small GTPase, Arabidopsis thaliana; also called Strep-II tagged ROP11; source: E. coli Rosetta (DE3) pLysS, purified (Strep-Tactin resin); not shown: Strep-II, N-terminal, kept) not shown
binds	StrepII-ABI1 (enzyme, Arabidopsis thaliana, UniProt P49597 1-434, looked up, ABI1, type 2C protein phosphatase, Arabidopsis thaliana; also called Strep-II tagged ABI1; source: E. coli Rosetta (DE3) pLysS, purified (Strep-Tactin resin); not shown: Strep-II, N-terminal, kept) MEEVSPAIAGPFRPFSETQMDFTGIRLGKGYCNNQYSNQDSENGDLMVSLPETSSCSVSGSHGSESRKVLISRINSPNLNMKESAAADIVVVDISAGDEINGSDITSEKKMISRTESRSLFEFKSVPLYGFTSICGRRPEMEDAVSTIPRFLQSSSGSMLDGRFDPQSAAHFFGVYDGHGGSQVANYCRERMHLALAEEIAKEKPMLCDGDTWLEKWKKALFNSFLRVDSEIESVAPETVGSTSVVAVVFPSHIFVANCGDSRAVLCRGKTALPLSVDHKPDREDEAARIEAAGGKVIQWNGARVFGVLAMSRSIGDRYLKPSIIPDPEVTAVKRVKEDDCLILASDGVWDVMTDEEACEMARKRILLWHKKNAVAGDASLLADERRKEGKDPAAMSAAEYLSKLAIQRGSKDNISVVVVDLKPRRKLKSKPLN
